{
  "source": "paper PMC4808631",
  "binders": {"B1": {"name": "high affinity ETS binding site 27-mer duplex (dsDNA)", "DNA 1": "TCGACGGCCAAGCCGGAAGTGAGTGCC", "DNA 2": "TCGAGGCACTCACTTCCGGCTTGGCCG"}},
  "target": "T1, Ets-1 ΔN331 (UniProt P27577 331-440)",
  "T1 sequence": "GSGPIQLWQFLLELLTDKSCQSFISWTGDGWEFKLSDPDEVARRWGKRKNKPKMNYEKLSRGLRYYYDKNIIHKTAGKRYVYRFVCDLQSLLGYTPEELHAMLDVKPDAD",
  "experiment": "EMSA",
  "data": [
    {"binder": "B1", "values": [
      {"measurement": "binding result", "result": "binds"}
    ]}
  ]
}
